Experimental data from patent US20160009789A1 (published 2016).

Columns and labels:
HXBc2 = assay: ELISA
[1] = target: gp41 MPER peptide (residues 657 to 669 of gp41) linked to a C-terminal C9 tag; assay: SPR

B1: gHC+LC (antibody, V domains shown)
VH: not shown
VL: EIVLTQSPGTLSLSPGETAIISCRTSQYGSLAWYQQRPGQAPRLVIYSGSTRAAGIPDRFSGSRWGPDYNLTISNLESGDFGVYYCQQYEFFGQGTKVQVDI
B1 gave an EC50 (HXBc2) of 21.4 mg/L.

B2: 2F5 wild-type IgG (antibody, V domains shown)
VH: RITLKESGPPLVKPTQTLTLTCSFSGFSLSDFGVGVGWIRQPPGKALEWLAIIYSDDDKRYSPSLNTRLTITKDTSKNQVVLVMTRVSPVDTATYFCAHRRGPTTLFGVPIARGPVNAMDVWGQGITVTISS
VL: ALQLTQSPSSLSASVGDRITITCRASQGVTSALAWYRQKPGSPPQLLIYDASSLESGVPSRFSGSGSGTEFTLTISTLRPEDFATYYCQQLHFYPHTFGGGTRVDVRR
B2 gave a Kd [1] of 9.5 nM.

B3: HC+gLC (antibody, V domains shown)
VH: QVQLVQSGGQMKKPGESMRISCRASGYEFIDCTLNWIRLAPGKRPEWMGWLKPRGGAVNYARPLQGRVTMTRDVYSDTAFLELRSLTVDDTAVYFCTRGKNCDYNWDFEHWGRGTPVIVSS
VL: EIVLTQSPATLSLSPGERATLSCRASQYSVSSYLAWYQQKPGQAPRLLIYDASNRATGIPARFSGSGSGRDFTLTISSLEPEDFAVYYCQQFGQGTKLEIK
B3 gave an EC50 (HXBc2) of 2.14 mg/L.

B4: gHC+gLC (antibody, V domains shown)
VH: not shown
VL: EIVLTQSPATLSLSPGERATLSCRASQYSVSSYLAWYQQKPGQAPRLLIYDASNRATGIPARFSGSGSGRDFTLTISSLEPEDFAVYYCQQFGQGTKLEIK
B4 was tested, and the EC50 (HXBc2) was > 50 mg/L.
